Experiment [1] concerns the target rHuman HGF R/c-MET/Fc Chimera, CF (R&D Systems Cat#358-MT/CF) (human) (UniProt P08581). Nature of the experiment: MSD Multispot ECL, antigen spotted on plate, Fab at 60 nM; blank spot 237.
Experiment [2] deals with rHuman ErbB2/Fc Chimera, CF (R&D Systems Cat#1129-ER) (human) (UniProt P04626). Described as above.
Experiment [3] deals with rHuman IGF-1 sR, (IGF-1 sR), CF (R&D Systems Cat#391-GR) (human) (UniProt P08069). The experiment is described as above.
Experiment [4] addresses rHuman EGF R/Fc Chimera, CF (R&D Systems Cat#344-ER) (human) (UniProt P00533). The experiment is described as above.
For experiment [5], the target named is rHuman HGF R/c-MET/Fc Chimera, CF (R&D Systems Cat#358-MT/CF) (human) (UniProt P08581). Nature of the experiment: MSD Multispot ECL, antigen spotted on plate, Fab at 120 nM; blank spot 363.
rHuman HGF R/c-MET/Fc Chimera, CF (R&D Systems Cat#358-MT/CF) (human), sequence (P08581 25-932, change not shown): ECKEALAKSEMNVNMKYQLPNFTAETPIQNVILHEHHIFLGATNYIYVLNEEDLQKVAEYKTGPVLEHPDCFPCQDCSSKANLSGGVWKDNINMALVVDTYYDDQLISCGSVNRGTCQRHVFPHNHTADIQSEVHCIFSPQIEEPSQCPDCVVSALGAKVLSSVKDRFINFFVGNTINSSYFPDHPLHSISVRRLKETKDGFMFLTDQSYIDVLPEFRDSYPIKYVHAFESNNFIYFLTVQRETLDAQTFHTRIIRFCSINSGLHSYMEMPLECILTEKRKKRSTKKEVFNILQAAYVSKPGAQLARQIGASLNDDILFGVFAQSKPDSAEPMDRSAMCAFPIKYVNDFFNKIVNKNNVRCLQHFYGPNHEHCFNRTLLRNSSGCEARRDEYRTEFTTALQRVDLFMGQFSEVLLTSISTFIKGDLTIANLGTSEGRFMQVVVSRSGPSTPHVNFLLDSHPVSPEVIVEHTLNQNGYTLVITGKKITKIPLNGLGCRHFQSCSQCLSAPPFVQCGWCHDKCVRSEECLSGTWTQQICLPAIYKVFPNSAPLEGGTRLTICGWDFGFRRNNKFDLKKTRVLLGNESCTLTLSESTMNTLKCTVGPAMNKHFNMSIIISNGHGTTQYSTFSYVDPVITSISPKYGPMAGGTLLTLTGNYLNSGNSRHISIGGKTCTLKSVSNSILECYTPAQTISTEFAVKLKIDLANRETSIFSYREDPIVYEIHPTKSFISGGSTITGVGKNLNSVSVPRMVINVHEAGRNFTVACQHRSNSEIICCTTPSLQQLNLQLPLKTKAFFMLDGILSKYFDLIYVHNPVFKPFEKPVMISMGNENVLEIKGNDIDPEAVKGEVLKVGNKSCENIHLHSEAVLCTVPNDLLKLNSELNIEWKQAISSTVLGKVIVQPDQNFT
The target in experiment [6] is rHuman ErbB2/Fc Chimera, CF (R&D Systems Cat#1129-ER) (human) (UniProt P04626). The description is as above.
The target in experiment [7] is rHuman IGF-1 sR, (IGF-1 sR), CF (R&D Systems Cat#391-GR) (human) (UniProt P08069). Described as above.
The target of experiment [8] is rHuman EGF R/Fc Chimera, CF (R&D Systems Cat#344-ER) (human) (UniProt P00533). The description is as above.
In experiment [9] the target is rHuman HGF R/c-MET/Fc Chimera, CF (R&D Systems Cat#358-MT/CF) (human) (UniProt P08581). Nature of the experiment: MSD Multispot ECL, antigen spotted on plate, Fab at 15 nM; blank spot 261.
The target in experiment [10] is rHuman ErbB2/Fc Chimera, CF (R&D Systems Cat#1129-ER) (human) (UniProt P04626). The description is as above.
Experiment [11] has as its target rHuman IGF-1 sR, (IGF-1 sR), CF (R&D Systems Cat#391-GR) (human) (UniProt P08069). The experiment is described as above.
For experiment [12], the target named is rHuman EGF R/Fc Chimera, CF (R&D Systems Cat#344-ER) (human) (UniProt P00533). Described as above.
For experiment [13], the target named is rHuman HGF R/c-MET/Fc Chimera, CF (R&D Systems Cat#358-MT/CF) (human) (UniProt P08581). Nature of the experiment: MSD Multispot ECL, antigen spotted on plate, Fab at 7.5 nM; blank spot 217.
Experiment [14] addresses rHuman ErbB2/Fc Chimera, CF (R&D Systems Cat#1129-ER) (human) (UniProt P04626). The description is as above.
Experiment [15] addresses rHuman IGF-1 sR, (IGF-1 sR), CF (R&D Systems Cat#391-GR) (human) (UniProt P08069). The description is as above.
Experiment [16] deals with rHuman EGF R/Fc Chimera, CF (R&D Systems Cat#344-ER) (human) (UniProt P00533). The description is as above.
Experiment [17] addresses rHuman HGF R/c-MET/Fc Chimera, CF (R&D Systems Cat#358-MT/CF) (human) (UniProt P08581). In words: MSD Multispot ECL, antigen spotted on plate, Fab at 3.8 nM; blank spot 198.
Experiment [18] concerns the target rHuman ErbB2/Fc Chimera, CF (R&D Systems Cat#1129-ER) (human) (UniProt P04626). The description is as above.
The target in experiment [19] is rHuman IGF-1 sR, (IGF-1 sR), CF (R&D Systems Cat#391-GR) (human) (UniProt P08069). The description is as above.
The target of experiment [20] is rHuman EGF R/Fc Chimera, CF (R&D Systems Cat#344-ER) (human) (UniProt P00533). Described as above.
Experiment [21] deals with rHuman HGF R/c-MET/Fc Chimera, CF (R&D Systems Cat#358-MT/CF) (human) (UniProt P08581). In words: MSD Multispot ECL, antigen spotted on plate, Fab at 30 nM; blank spot 213.
The target in experiment [22] is rHuman ErbB2/Fc Chimera, CF (R&D Systems Cat#1129-ER) (human) (UniProt P04626). The experiment is described as above.
The target of experiment [23] is rHuman IGF-1 sR, (IGF-1 sR), CF (R&D Systems Cat#391-GR) (human) (UniProt P08069). Described as above.
Experiment [24] concerns the target rHuman EGF R/Fc Chimera, CF (R&D Systems Cat#344-ER) (human) (UniProt P00533). Described as above.
Experiment [25] has as its target rHuman HGF R/c-MET/Fc Chimera, CF (R&D Systems Cat#358-MT/CF) (human) (UniProt P08581). In words: MSD Multispot ECL, antigen spotted on plate, Fab at 480 nM; blank spot 362.
Experiment [26] deals with rHuman ErbB2/Fc Chimera, CF (R&D Systems Cat#1129-ER) (human) (UniProt P04626). The description is as above.
Experiment [27] addresses rHuman IGF-1 sR, (IGF-1 sR), CF (R&D Systems Cat#391-GR) (human) (UniProt P08069). Described as above.
The target of experiment [28] is rHuman EGF R/Fc Chimera, CF (R&D Systems Cat#344-ER) (human) (UniProt P00533). Described as above.
The target of experiment [29] is rHuman HGF R/c-MET/Fc Chimera, CF (R&D Systems Cat#358-MT/CF) (human) (UniProt P08581). Nature of the experiment: MSD Multispot ECL, antigen spotted on plate, Fab at 240 nM; blank spot 316.
For experiment [30], the target named is rHuman ErbB2/Fc Chimera, CF (R&D Systems Cat#1129-ER) (human) (UniProt P04626). Described as above.
The target in experiment [31] is rHuman IGF-1 sR, (IGF-1 sR), CF (R&D Systems Cat#391-GR) (human) (UniProt P08069). The experiment is described as above.
Experiment [32] deals with rHuman EGF R/Fc Chimera, CF (R&D Systems Cat#344-ER) (human) (UniProt P00533). Described as above.
The target in experiment [33] is rHuman ErbB2/Fc Chimera (human) (UniProt P04626). Nature of the experiment: ECL (MSD) multispot assay, antigen spotted; blank spot of this row 236.
In experiment [34] the target is rHuman ErbB2/Fc Chimera, CF (R&D Systems Cat#1129-ER) (human) (UniProt P04626). Nature of the experiment: ECL multispot (MSD) binding assay, antigen spotted on plate, Fab 0.04 uM.
For experiment [35], the target named is rHuman EGF R/Fc Chimera, CF (R&D Systems Cat#344-ER) (human) (UniProt P00533). Described as above.
The target of experiment [36] is Recombinant Human DLL4 (R&D Systems Cat#1506-D4/CF) (human) (UniProt Q9NR61). Nature of the experiment: ELISA, DLL4 coated on plate, Fab at […] (cells of this row shifted one column left). Background: In an ELISA, binding on a coated surface is turned into a signal by an enzyme label.
Experiment [37] concerns the target rHuman ErbB2/Fc Chimera (human) (UniProt P04626). In words: ECL (MSD) multispot assay, antigen spotted; blank spot of this row 223.

B1: Fab VH6-1_IGHD3-3*01_IGHJ4*01 & V4-3_IGLJ4*01 (Fab, V domains shown)
VH: QVQLQQSGPGLVKPSQTLSLTCAISGDSVSSNSAAWNWIRQSPSRGLEWLGRTYYRSKWYNDYAVSVKSRITINPDTSKNQFSLQLNSVTPEDTAVYYCAREYYDFWSGYYTDYFDYWGQGTLVTVSS
VL: QPVLTQPTSLSASPGASARLTCTLRSGINLGSYRIFWYQQKPESPPRYLLSYYSDSSKHQGSGVPSRFSGSKDASSNAGILVISGLQSEDEADYYCMIWHSSASFVFGGGTQLIIL
Regarding B1, the ECL signal in experiment [1] was found to be 623; in [2] it was 777; in [3], 654; in [4], 679; in [5] it was 785; in [6], 822. The ECL signal in experiment [7] was 813; in experiment [8] it was 658; in experiment [9], 694; in experiment [10] it was 713; in [11] it was 705; in [12], 584. Besides, the ECL signal in [13] worked out at 558; in experiment [14], 695; in experiment [15] it was 642; in [16], 582; in [17] it was 519; in [18], 714. For the same molecule, the ECL signal was determined as 463 in [19]; 511 in [20]; 640 in experiment [21]; 726 in experiment [22]; 697 in [23]; 585 in [24]. Also, the ECL signal in experiment [25] was determined as 951; in [26], 965; in experiment [27] it was 741; in experiment [28], 877; in experiment [29], 834; in experiment [30], 833. Further, the ECL signal in experiment [31] is 625; in experiment [32], 690.

B2: Fab VH5-51_IGHD5-18*01>3_IGHJ4*01 G100K/G104T S84V & V3-4_IGLJ1*01 (Fab, V domains shown)
VH: EVQLVQSGAEVKKPGESLKISCKGSGYSFTSYWIGWVRQMPGKGLEWMGIIYPGDSDTRYSPSFQGQVTISADKSISTAYLQWVSLKASDTAMYYCARRKYSYTYDYFDYWGQGTLVTVSS
VL: QTVVTQEPSFSVSPGGTVTLTCGLSSGSVSTSYYPSWYQQTPGQAPRTLIYSTNTRSSGVPDRFSGSILGNKAALTITGAQADDESDYYCVLYMGSGISYVFGTGTKVTVL
For the molecule B2, the ECL signal in [33] was 1040.

B3: Fab VH5-51_IGHD5-18*01>3_IGHJ4*01 G100K/G104T (H:KT) & V3-4_IGLJ1*01 G97A (Fab, V domains shown)
VH: EVQLVQSGAEVKKPGESLKISCKGSGYSFTSYWIGWVRQMPGKGLEWMGIIYPGDSDTRYSPSFQGQVTISADKSISTAYLQWSSLKASDTAMYYCARRKYSYTYDYFDYWGQGTLVTVSS
VL: QTVVTQEPSFSVSPGGTVTLTCGLSSGSVSTSYYPSWYQQTPGQAPRTLIYSTNTRSSGVPDRFSGSILGNKAALTITGAQADDESDYYCVLYMGSAISYVFGTGTKVTVL
B3: the ECL signal in [34] was 1290; in experiment [35], 1060.

B4: Fab VH5-51_IGHD5-18*01>3_IGHJ4*01 G100K/G104T S28R (H:KT S28R) & V3-4_IGLJ1*01 M94R/S96M (L:RM) (Fab, V domains shown)
VH: EVQLVQSGAEVKKPGESLKISCKGSGYRFTSYWIGWVRQMPGKGLEWMGIIYPGDSDTRYSPSFQGQVTISADKSISTAYLQWSSLKASDTAMYYCARRKYSYTYDYFDYWGQGTLVTVSS
VL: QTVVTQEPSFSVSPGGTVTLTCGLSSGSVSTSYYPSWYQQTPGQAPRTLIYSTNTRSSGVPDRFSGSILGNKAALTITGAQADDESDYYCVLYRGMGISYVFGTGTKVTVL
Regarding B4, the ELISA signal in experiment [36] came to 0.001.

B5: Fab VH5-51_IGHD5-18*01>3_IGHJ4*01 G100K/G104T S84L & V3-4_IGLJ1*01 (Fab, V domains shown)
VH: EVQLVQSGAEVKKPGESLKISCKGSGYSFTSYWIGWVRQMPGKGLEWMGIIYPGDSDTRYSPSFQGQVTISADKSISTAYLQWLSLKASDTAMYYCARRKYSYTYDYFDYWGQGTLVTVSS
VL: QTVVTQEPSFSVSPGGTVTLTCGLSSGSVSTSYYPSWYQQTPGQAPRTLIYSTNTRSSGVPDRFSGSILGNKAALTITGAQADDESDYYCVLYMGSGISYVFGTGTKVTVL
Turning to B5, the ECL signal in experiment [37] amounted to 1090.

The values are drawn from patent publication US20120316071A1.
